Reference: article PMC3791895 (mBio, 2013)

Target: the molecule itself
Assay: SEC

B1: Enterococcus faecalis FabI enoyl-ACP reductase (enzyme, UniProt Q820V5 1-250, looked up)
chain: MFLQNKNVVVMGVANKKSIAWGCAKALKDQGANVIYTYQNERMKKQVVKLADENDLLVECDVASDASIQAAFETIKNEVGTIDGLVHAIAFAKKEELSGNVSDITRDGFLLAQDISSYSLLAVTHYAKPLLNPGSGIVTLTYLGSERAIPNYNMMGIAKASLETAVKYLAFELAADKIRVNGISAGAIKTLAVTGVKDYDQLISISNERTPDKTGVTIEEVGNTCAFLVSDLASGVVGDIIYVDKGVHLT
**Q.** Which “stoichiometry N” value does the source give for B1 here?
**A.** 2
